Measured values published in patent US20230250154A1.

Molecular target: Protease Mixtures
Test: cell-based or functional assay

Binder | Protease Inhibition (% of WT); Protease Mixtures, IGD Substrate | Protease Inhibition (% of WT); Protease Mixtures, Collagen Substrate
Variant A2M, bait region SEQ ID NO 135, P01023 24-1474 (protein) SVSGKPQYMVLVPSLLHTETTEKGCVLLSYLNETVTVSASLESVRGNRSLFTDLEAENDVLHCVAFAVPKSSSNEEVMFLTVQVKGPTQEFKKRTTVMVKNEDSLVFVQTDKSIYKPGQTVKFRVVSMDENFHPLNELIPLVYIQDPKGNRIAQWQSFQLEGGLKQFSFPLSSEPFQGSYKVVVQKKSGGRTEHPFTVEEFVLPKFEVQVTVPKIITILEEEMNVSVCGLYTYGKPVPGHVTVSICRKYSDASDCHGEDSQAFCEKFSGQLNSHGCFYQQVKTKVFQLKRKEYEMKLHTEAQIQEEGTVVELTGRQSSEITRTITKLSFVKVDSHFRQGIPFFGQVRLVDGKGVPIPNKVIFIRGNEANYYSNATTDEHGLVQFSINTTNVMGTSLTVRVNYKDRSPCYGYQWVSEEHEEAHHTAYLVFSPSKSFVHLEPMSHELPCGHTQTVQAHYILNGGTLLGLKKLSFYYLIMAKGGIVRTGTHGLLVKQEDMKGHFSISIPVKSDIAPVARLLIYAVLPTGDVIGDSAKYDVENCLANKVDLSFSPSQSLPASHAHLRVTAAPQSVCALRAVDQSVLLMKPDAELSASSVYNLLPEKDLTGFPGPLNDQDDEDCINRHNVYINGITYTPVSSTNEKDMYSFLEDMGLKAFTNSKIRKPKMCPQLEQYEMHGPIPENFFGVSELEGRGSSEDLVVQIKEEEGLGSVEEPHTKLRKYFPETWIWDLVVVNSAGVAEVGVTVPDTITEWKAGAFCLSEDAGLGISSTASLRAFQPFFVELTMPYSVIRGEAFTLKATVLNYLPKCIRVSVQLEASPAFLAVPVEKEQAPHCICANGRQTVSWAVTPKSLGNVNFTVSAEALESQELCGTEVPSVPEHGRKDTVIKPLLVEPEGLEKETTFNSLLCPSGGEVSEELSLKLPPNVVEESARASVSVLGDILGSAMQNTQNLLQMPYGCGEQNMVLFAPNIYVLDYLNETQQLTPEIKSKAIGYLNTGYQRQLNYKHYDGSYSTFGERYGRNQGNTWLTAFVLKTFAQARAYIFIDEAHITQALIWLSQRQKDNGCFRSSGSLLNNAIKGGVEDEVTLSAYITIALLEIPLTVTHPVVRNALFCLESAWKTAQEGDHGSHVYTKALLAYAFALAGNQDKRKEVLKSLNEEAVKKDNSVHWERPQKPKAPVGHFYEPQAPSAEVEMTSYVLLAYLTAQPAPTSEDLTSATNIVKWITKQQNAQGGFSSTQDTVVALHALSKYGAATFTRTGKAAQVTIQSSGTFSSKFQVDNNNRLLLQQVSLPELPGEYSMKVTGEGCVYLQTSLKYNILPEKEEFPFALGVQTLPQTCDEPKAHTSFQISLSVSYTGSRSASNMAIVDVKMVSGFIPLKPTVKMLERSNHVSRTEVSSNHVLIYLDKVSNQTLSLFFTVLQDVPVRDLKPAIVKVYDYYETDEFAIAEYNAPCSKDLGNADYKDDDDKGASHHHHHH | 140 % of WT | –
Variant A2M, bait region SEQ ID NO 136, P01023 24-1474 (protein) SVSGKPQYMVLVPSLLHTETTEKGCVLLSYLNETVTVSASLESVRGNRSLFTDLEAENDVLHCVAFAVPKSSSNEEVMFLTVQVKGPTQEFKKRTTVMVKNEDSLVFVQTDKSIYKPGQTVKFRVVSMDENFHPLNELIPLVYIQDPKGNRIAQWQSFQLEGGLKQFSFPLSSEPFQGSYKVVVQKKSGGRTEHPFTVEEFVLPKFEVQVTVPKIITILEEEMNVSVCGLYTYGKPVPGHVTVSICRKYSDASDCHGEDSQAFCEKFSGQLNSHGCFYQQVKTKVFQLKRKEYEMKLHTEAQIQEEGTVVELTGRQSSEITRTITKLSFVKVDSHFRQGIPFFGQVRLVDGKGVPIPNKVIFIRGNEANYYSNATTDEHGLVQFSINTTNVMGTSLTVRVNYKDRSPCYGYQWVSEEHEEAHHTAYLVFSPSKSFVHLEPMSHELPCGHTQTVQAHYILNGGTLLGLKKLSFYYLIMAKGGIVRTGTHGLLVKQEDMKGHFSISIPVKSDIAPVARLLIYAVLPTGDVIGDSAKYDVENCLANKVDLSFSPSQSLPASHAHLRVTAAPQSVCALRAVDQSVLLMKPDAELSASSVYNLLPEKDLTGFPGPLNDQDDEDCINRHNVYINGITYTPVSSTNEKDMYSFLEDMGLKAFTNSKIRKPKMCPQLEQYEMHGPKEEEGLGSIPENFFGVSELEGRGSEGEGEGEGVEEPHTKLRKYFPETWIWDLVVVNSAGVAEVGVTVPDTITEWKAGAFCLSEDAGLGISSTASLRAFQPFFVELTMPYSVIRGEAFTLKATVLNYLPKCIRVSVQLEASPAFLAVPVEKEQAPHCICANGRQTVSWAVTPKSLGNVNFTVSAEALESQELCGTEVPSVPEHGRKDTVIKPLLVEPEGLEKETTFNSLLCPSGGEVSEELSLKLPPNVVEESARASVSVLGDILGSAMQNTQNLLQMPYGCGEQNMVLFAPNIYVLDYLNETQQLTPEIKSKAIGYLNTGYQRQLNYKHYDGSYSTFGERYGRNQGNTWLTAFVLKTFAQARAYIFIDEAHITQALIWLSQRQKDNGCFRSSGSLLNNAIKGGVEDEVTLSAYITIALLEIPLTVTHPVVRNALFCLESAWKTAQEGDHGSHVYTKALLAYAFALAGNQDKRKEVLKSLNEEAVKKDNSVHWERPQKPKAPVGHFYEPQAPSAEVEMTSYVLLAYLTAQPAPTSEDLTSATNIVKWITKQQNAQGGFSSTQDTVVALHALSKYGAATFTRTGKAAQVTIQSSGTFSSKFQVDNNNRLLLQQVSLPELPGEYSMKVTGEGCVYLQTSLKYNILPEKEEFPFALGVQTLPQTCDEPKAHTSFQISLSVSYTGSRSASNMAIVDVKMVSGFIPLKPTVKMLERSNHVSRTEVSSNHVLIYLDKVSNQTLSLFFTVLQDVPVRDLKPAIVKVYDYYETDEFAIAEYNAPCSKDLGNADYKDDDDKGASHHHHHH | 215 % of WT | 170 % of WT

Other lines, results leading:

Protease Inhibition (% of WT); Protease Mixtures, IGD Substrate | Protease Inhibition (% of WT); Protease Mixtures, Collagen Substrate | Binder
220 % of WT | – | Variant A2M, bait region SEQ ID NO 134, P01023 24-1474 (protein) SVSGKPQYMVLVPSLLHTETTEKGCVLLSYLNETVTVSASLESVRGNRSLFTDLEAENDVLHCVAFAVPKSSSNEEVMFLTVQVKGPTQEFKKRTTVMVKNEDSLVFVQTDKSIYKPGQTVKFRVVSMDENFHPLNELIPLVYIQDPKGNRIAQWQSFQLEGGLKQFSFPLSSEPFQGSYKVVVQKKSGGRTEHPFTVEEFVLPKFEVQVTVPKIITILEEEMNVSVCGLYTYGKPVPGHVTVSICRKYSDASDCHGEDSQAFCEKFSGQLNSHGCFYQQVKTKVFQLKRKEYEMKLHTEAQIQEEGTVVELTGRQSSEITRTITKLSFVKVDSHFRQGIPFFGQVRLVDGKGVPIPNKVIFIRGNEANYYSNATTDEHGLVQFSINTTNVMGTSLTVRVNYKDRSPCYGYQWVSEEHEEAHHTAYLVFSPSKSFVHLEPMSHELPCGHTQTVQAHYILNGGTLLGLKKLSFYYLIMAKGGIVRTGTHGLLVKQEDMKGHFSISIPVKSDIAPVARLLIYAVLPTGDVIGDSAKYDVENCLANKVDLSFSPSQSLPASHAHLRVTAAPQSVCALRAVDQSVLLMKPDAELSASSVYNLLPEKDLTGFPGPLNDQDDEDCINRHNVYINGITYTPVSSTNEKDMYSFLEDMGLKAFTNSKIRKPKMCPQLEQYEMHGPSELEGRGSIPENFFGVKEEEGLGSSEDLVVQIVEEPHTKLRKYFPETWIWDLVVVNSAGVAEVGVTVPDTITEWKAGAFCLSEDAGLGISSTASLRAFQPFFVELTMPYSVIRGEAFTLKATVLNYLPKCIRVSVQLEASPAFLAVPVEKEQAPHCICANGRQTVSWAVTPKSLGNVNFTVSAEALESQELCGTEVPSVPEHGRKDTVIKPLLVEPEGLEKETTFNSLLCPSGGEVSEELSLKLPPNVVEESARASVSVLGDILGSAMQNTQNLLQMPYGCGEQNMVLFAPNIYVLDYLNETQQLTPEIKSKAIGYLNTGYQRQLNYKHYDGSYSTFGERYGRNQGNTWLTAFVLKTFAQARAYIFIDEAHITQALIWLSQRQKDNGCFRSSGSLLNNAIKGGVEDEVTLSAYITIALLEIPLTVTHPVVRNALFCLESAWKTAQEGDHGSHVYTKALLAYAFALAGNQDKRKEVLKSLNEEAVKKDNSVHWERPQKPKAPVGHFYEPQAPSAEVEMTSYVLLAYLTAQPAPTSEDLTSATNIVKWITKQQNAQGGFSSTQDTVVALHALSKYGAATFTRTGKAAQVTIQSSGTFSSKFQVDNNNRLLLQQVSLPELPGEYSMKVTGEGCVYLQTSLKYNILPEKEEFPFALGVQTLPQTCDEPKAHTSFQISLSVSYTGSRSASNMAIVDVKMVSGFIPLKPTVKMLERSNHVSRTEVSSNHVLIYLDKVSNQTLSLFFTVLQDVPVRDLKPAIVKVYDYYETDEFAIAEYNAPCSKDLGNADYKDDDDKGASHHHHHH
140 % of WT | – | Variant A2M, bait region SEQ ID NO 137, P01023 24-1474 (protein) SVSGKPQYMVLVPSLLHTETTEKGCVLLSYLNETVTVSASLESVRGNRSLFTDLEAENDVLHCVAFAVPKSSSNEEVMFLTVQVKGPTQEFKKRTTVMVKNEDSLVFVQTDKSIYKPGQTVKFRVVSMDENFHPLNELIPLVYIQDPKGNRIAQWQSFQLEGGLKQFSFPLSSEPFQGSYKVVVQKKSGGRTEHPFTVEEFVLPKFEVQVTVPKIITILEEEMNVSVCGLYTYGKPVPGHVTVSICRKYSDASDCHGEDSQAFCEKFSGQLNSHGCFYQQVKTKVFQLKRKEYEMKLHTEAQIQEEGTVVELTGRQSSEITRTITKLSFVKVDSHFRQGIPFFGQVRLVDGKGVPIPNKVIFIRGNEANYYSNATTDEHGLVQFSINTTNVMGTSLTVRVNYKDRSPCYGYQWVSEEHEEAHHTAYLVFSPSKSFVHLEPMSHELPCGHTQTVQAHYILNGGTLLGLKKLSFYYLIMAKGGIVRTGTHGLLVKQEDMKGHFSISIPVKSDIAPVARLLIYAVLPTGDVIGDSAKYDVENCLANKVDLSFSPSQSLPASHAHLRVTAAPQSVCALRAVDQSVLLMKPDAELSASSVYNLLPEKDLTGFPGPLNDQDDEDCINRHNVYINGITYTPVSSTNEKDMYSFLEDMGLKAFTNSKIRKPKMCPQLEQYEMHGPSEDLVVQIKEEEGLGSIPENFFGVSELEGRGSVEEPHTKLRKYFPETWIWDLVVVNSAGVAEVGVTVPDTITEWKAGAFCLSEDAGLGISSTASLRAFQPFFVELTMPYSVIRGEAFTLKATVLNYLPKCIRVSVQLEASPAFLAVPVEKEQAPHCICANGRQTVSWAVTPKSLGNVNFTVSAEALESQELCGTEVPSVPEHGRKDTVIKPLLVEPEGLEKETTFNSLLCPSGGEVSEELSLKLPPNVVEESARASVSVLGDILGSAMQNTQNLLQMPYGCGEQNMVLFAPNIYVLDYLNETQQLTPEIKSKAIGYLNTGYQRQLNYKHYDGSYSTFGERYGRNQGNTWLTAFVLKTFAQARAYIFIDEAHITQALIWLSQRQKDNGCFRSSGSLLNNAIKGGVEDEVTLSAYITIALLEIPLTVTHPVVRNALFCLESAWKTAQEGDHGSHVYTKALLAYAFALAGNQDKRKEVLKSLNEEAVKKDNSVHWERPQKPKAPVGHFYEPQAPSAEVEMTSYVLLAYLTAQPAPTSEDLTSATNIVKWITKQQNAQGGFSSTQDTVVALHALSKYGAATFTRTGKAAQVTIQSSGTFSSKFQVDNNNRLLLQQVSLPELPGEYSMKVTGEGCVYLQTSLKYNILPEKEEFPFALGVQTLPQTCDEPKAHTSFQISLSVSYTGSRSASNMAIVDVKMVSGFIPLKPTVKMLERSNHVSRTEVSSNHVLIYLDKVSNQTLSLFFTVLQDVPVRDLKPAIVKVYDYYETDEFAIAEYNAPCSKDLGNADYKDDDDKGASHHHHHH
